Tests used:
[1] = biological target: T1, SHELδ26A (SHEL lacking the sequence of exon 26A)
T1 chain: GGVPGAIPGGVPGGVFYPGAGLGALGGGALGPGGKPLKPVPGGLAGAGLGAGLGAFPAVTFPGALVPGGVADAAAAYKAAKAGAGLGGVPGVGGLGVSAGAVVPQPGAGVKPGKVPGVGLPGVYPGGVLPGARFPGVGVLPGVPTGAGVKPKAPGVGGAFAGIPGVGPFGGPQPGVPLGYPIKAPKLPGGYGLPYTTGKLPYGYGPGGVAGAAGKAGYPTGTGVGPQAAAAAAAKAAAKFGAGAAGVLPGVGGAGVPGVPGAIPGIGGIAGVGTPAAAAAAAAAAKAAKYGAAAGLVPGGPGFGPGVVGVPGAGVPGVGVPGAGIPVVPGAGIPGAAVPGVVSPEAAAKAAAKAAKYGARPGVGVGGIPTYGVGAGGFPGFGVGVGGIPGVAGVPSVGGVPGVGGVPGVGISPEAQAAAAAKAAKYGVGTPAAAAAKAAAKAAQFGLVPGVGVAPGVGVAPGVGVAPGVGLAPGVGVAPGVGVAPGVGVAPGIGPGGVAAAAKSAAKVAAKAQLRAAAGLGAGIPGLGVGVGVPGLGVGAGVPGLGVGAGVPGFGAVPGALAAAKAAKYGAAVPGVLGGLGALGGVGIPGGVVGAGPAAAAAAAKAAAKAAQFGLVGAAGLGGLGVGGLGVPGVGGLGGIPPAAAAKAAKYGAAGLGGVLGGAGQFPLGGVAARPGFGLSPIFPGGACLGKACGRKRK

[2] = biological target: T2, serine protease site peptide (SPS-peptide), N-…-C
T2 chain: KAQLRAAAGLGAGI

[3] = biological target: T3, SHEL (synthetic human elastin; recombinant human tropoelastin splice form)
T3 chain: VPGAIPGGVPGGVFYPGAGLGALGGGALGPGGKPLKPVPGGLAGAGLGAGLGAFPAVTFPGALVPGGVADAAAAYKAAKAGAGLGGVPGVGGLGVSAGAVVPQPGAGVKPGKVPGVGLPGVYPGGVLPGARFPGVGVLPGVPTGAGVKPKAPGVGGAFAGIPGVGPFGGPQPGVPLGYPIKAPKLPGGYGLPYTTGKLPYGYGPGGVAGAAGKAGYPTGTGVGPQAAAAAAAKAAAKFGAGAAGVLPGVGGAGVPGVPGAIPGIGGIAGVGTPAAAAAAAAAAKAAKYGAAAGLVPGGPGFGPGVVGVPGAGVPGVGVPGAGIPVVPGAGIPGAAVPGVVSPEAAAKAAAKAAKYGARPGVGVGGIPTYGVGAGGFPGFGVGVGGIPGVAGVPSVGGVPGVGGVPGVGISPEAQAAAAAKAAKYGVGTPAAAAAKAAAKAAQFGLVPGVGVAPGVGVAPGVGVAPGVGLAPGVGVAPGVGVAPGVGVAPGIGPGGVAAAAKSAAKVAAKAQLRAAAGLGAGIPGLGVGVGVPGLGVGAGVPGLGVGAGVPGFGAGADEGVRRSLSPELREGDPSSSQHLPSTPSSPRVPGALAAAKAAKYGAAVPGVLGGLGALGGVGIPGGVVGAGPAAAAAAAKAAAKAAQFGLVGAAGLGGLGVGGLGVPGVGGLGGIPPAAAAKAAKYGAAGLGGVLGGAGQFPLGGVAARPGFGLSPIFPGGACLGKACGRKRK

B1: human leukocyte elastase (HLE) (Sigma) (protein)
chain: IVGGRRARPHAWPFMVSLQLRGGHFCGATLIAPNFVMSAAHCVANVNVRAVRVVLGAHNLSRREPTRQVFAVQRIFENGYDPVNLLNDIVILQLNGSATINANVQVAQLPAQGRRLGNGVQCLAMGWGLLGRNRGIASVLQELNVTVVTSLCRRSNVCTLVRGRQAGVCFGDSGSPLVCNGLIHGIASFVRGGCASGLYPDAFAPVAQFVNWIDSIIQ
Question: With B1 as the protein, how does the “degradation of SHELδ26A by human leukocyte elastase, SDS-PAGE” value [1] read?
Answer: SHELδ26A produced a similar profile but with a series of fragments appearing 4 kDa smaller

Question: And the “amount of full-length SHEL after HLE digestion with SPS-peptide, SDS-PAGE and densitometry” value [2]?
Answer: SPS-peptide also resulted in more full-length SHEL using thrombin and HLE but to a lesser extent

Question: What about the “degradation of SHEL by human leukocyte elastase, SDS-PAGE” value [3] of the same protein?
Answer: numerous fragments were seen with two prominent fragments at 32 and 18 kDa

B2: Gelatinase A (72 kDa gelatinase) (protein)
chain: YNFFPRKPKWDKNQITYRIIGYTPDLDPETVDDAFARAFQVWSDVTPLRFSRIHDGEADIMINFGRWEHGDGYPFDGKDGLLAHAFAPGTGVGGDSHFDDDELWTLGEGQVVRVKYGNADGEYCKFPFLFNGKEYNSCTDTGRSDGFLWCSTTYNFEKDGKYGFCPHEALFTMGGNAEGQPCKFPFRFQGTSYDSCTTEGRTDGYRWCGTTEDYDRDKKYGFCPETAMSTVGGNSEGAPCVFPFTFLGNKYESCTSAGRSDGKMWCATTANYDDDRKWGFCPDQGYSLFLVAAHEFGHAMGLEHSQDPGALMAPIYTYTKNFRLSQDDIKGIQELYGASPDIDLGTGPTPTLGPVTPEICKQDIVFDGIAQIRGEIFFFKDRFIWRTVTPRDKPMGPLLVATFWPELPEKIDAVYEAPQEEKAVFFAGNEYWIYSASTLERGYPKPLTSLGLPPDVQRVDAAFNWSKNKKTYIFAGDKFWRYNEVKKKMDPGFPKLIADAWNAIPDNLDAVVDLQGGGHSYFFKGAYYLKLENQSLKSVKFGSIKSDWLGC
Question: For B2, which “digestion of SHEL by APMA-treated gelatinase A, SDS-PAGE” value [3] is on record?
Answer: Digestion with gelatinase A and gelatinase B (each previously treated with APMA) of SHEL revealed SDS-PAGE patterns of preferentially digested fragments

B3: Gelatinase B (92 kDa gelatinase) (protein)
chain: MRTPRCGVPDLGRFQTFEGDLKWHHHNITYWIQNYSEDLPRAVIDDAFARAFALWSAVTPLTFTRVYSRDADIVIQFGVAEHGDGYPFDGKDGLLAHAFPPGPGIQGDAHFDDDELWSLGKGVVVPTRFGNADGAACHFPFIFEGRSYSACTTDGRSDGLPWCSTTANYDTDDRFGFCPSERLYTQDGNADGKPCQFPFIFQGQSYSACTTDGRSDGYRWCATTANYDRDKLFGFCPTRADSTVMGGNSAGELCVFPFTFLGKEYSTCTSEGRGDGRLWCATTSNFDSDKKWGFCPDQGYSLFLVAAHEFGHALGLDHSSVPEALMYPMYRFTEGPPLHKDDVNGIRHLYGPRPEPEPRPPTTTTPQPTAPPTVCPTGPPTVHPSERPTAGPTGPPSAGPTGPPTAGPSTATTVPLSPVDDACNVNIFDAIAEIGNQLYLFKDGKYWRFSEGRGSRPQGPFLIADKWPALPRKLDSVFEERLSKKLFFFSGRQVWVYTGASVLGPRRLDKLGLGADVAQVTGALRSGRGKMLLFSGRRLWRFDVKAQMVDPRSASEVDRMFPGVPLDTHDVFQYREKAYFCQDRFYWRVSSRSELNQVDQVGYVTYDILQCPED
Question: How did the “digestion of SHEL by APMA-treated gelatinase B, SDS-PAGE” value [3] turn out when B3 was run?
Answer: Digestion with gelatinase A and gelatinase B (each previously treated with APMA) of SHEL revealed SDS-PAGE patterns of preferentially digested fragments

B4: human plasmin (Sigma) (protein)
chain: KVYLSECKTGNGKNYRGTMSKTKNGITCQKWSSTSPHRPRFSPATHPSEGLEENYCRNPDNDPQGPWCYTTDPEKRYDYCDILECEEECMHCSGENYDGKISKTMSGLECQAWDSQSPHAHGYIPSKFPNKNLKKNYCRNPDRELRPWCFTTDPNKRWELCDIPRCTTPPPSSGPTYQCLKGTGENYRGNVAVTVSGHTCQHWSAQTPHTHNRTPENFPCKNLDENYCRNPDGKRAPWCHTTNSQVRWEYCKIPSCDSSPVSTEQLAPTAPPELTPVVQDCYHGDGQSYRGTSSTTTTGKKCQSWSSMTPHRHQKTPENYPNAGLTMNYCRNPDADKGPWCFTTDPSVRWEYCNLKKCSGTEASVVAPPPVVLLPDVETPSEEDCMFGNGKGYRGKRATTVTGTPCQDWAAQEPHRHSIFTPETNPRAGLEKNYCRNPDGDVGGPWCYTTNPRKLYDYCDVPQCAAPSFDCGKPQVEPKKCPGRVVGGCVAHPHSWPWQVSLRTRFGMHFCGGTLISPEWVLTAAHCLEKSPRPSSYKVILGAHQEVNLEPHVQEIEVSRLFLEPTRKDIALLKLSSPAVITDKVIPACLPSPNYVVADRTECFITGWGETQGTFGAGLLKEAQLPVIENKVCNRYEFLNGRVQSTELCAGHLAGGTDSCQGDSGGPLVCFEKDKYILQGVTSWGLGCARPNKPGVYVRVSRFVTWIEGVMRNN
Question: What does the source list for B4?
Answer: amount of full-length SHEL after plasmin digestion with a 100:1 molar excess of SPS-peptide, SDS-PAGE and densitometry (also seen with SHELδ26A, not shown) [2]: more full-length SHEL was evident compared with controls using trypsin, plasmin, kallikrein and serum; degradation of SHEL by human plasmin, SDS-PAGE [3]: Major bands could be isolated using low concentration plasmin at 55, 45, 40, 34, 28, 22 and 18 kDa

— US7229788
